Results published in US20180155712, “COMPOSITIONS AND METHODS FOR IDENTIFYING POLYNUCLEOTIDES OF INTEREST” (The Regents of the University of California, published 2018).

Target: T7 RNA polymerase (Bacteriophage T7, UniProt P00573 P00573:1-883)
Assay: functional promoter recovered as cDNA by in vitro transcription and deep sequencing; relative strength not given
Procedure: Transcription with T7 RNA polymerase, phenol/chloroform/iso-amyl alcohol extraction, ethanol precipitation, and reverse transcription were performed as described for Examples 1 and 2, above. PCR was done of the resulting cDNA with primers that added appropriate indexed sequences for Illumina deep sequencing, as described above and herein. PCR was also done directly on the library plasmid, again adding the appropriate sequences for Illumina deep sequencing, but with a different index. The appropriately sized PCR products from the cDNA and from the plasmid library were gel purified. An equal mass amount of the two products were mixed and submitted for Illumina MiSeq deep sequencing. Approximately 5 million sequences were generated for each of the cDNA and plasmid library after separation based on the primer indices. For both cDNA and library PCR products, non-promoter sequences were trimmed, promoter sequences were separated based on the number of mutations present in each sequence, and the number of times any given sequence was present was determined. […] See, SEQ ID NOs: 10-73473 listed in the text-formatted computer readable sequence listing filed herewith, and incorporated herein by reference. […]

T7 RNA polymerase, sequence (P00573 whole entry, one chain of several): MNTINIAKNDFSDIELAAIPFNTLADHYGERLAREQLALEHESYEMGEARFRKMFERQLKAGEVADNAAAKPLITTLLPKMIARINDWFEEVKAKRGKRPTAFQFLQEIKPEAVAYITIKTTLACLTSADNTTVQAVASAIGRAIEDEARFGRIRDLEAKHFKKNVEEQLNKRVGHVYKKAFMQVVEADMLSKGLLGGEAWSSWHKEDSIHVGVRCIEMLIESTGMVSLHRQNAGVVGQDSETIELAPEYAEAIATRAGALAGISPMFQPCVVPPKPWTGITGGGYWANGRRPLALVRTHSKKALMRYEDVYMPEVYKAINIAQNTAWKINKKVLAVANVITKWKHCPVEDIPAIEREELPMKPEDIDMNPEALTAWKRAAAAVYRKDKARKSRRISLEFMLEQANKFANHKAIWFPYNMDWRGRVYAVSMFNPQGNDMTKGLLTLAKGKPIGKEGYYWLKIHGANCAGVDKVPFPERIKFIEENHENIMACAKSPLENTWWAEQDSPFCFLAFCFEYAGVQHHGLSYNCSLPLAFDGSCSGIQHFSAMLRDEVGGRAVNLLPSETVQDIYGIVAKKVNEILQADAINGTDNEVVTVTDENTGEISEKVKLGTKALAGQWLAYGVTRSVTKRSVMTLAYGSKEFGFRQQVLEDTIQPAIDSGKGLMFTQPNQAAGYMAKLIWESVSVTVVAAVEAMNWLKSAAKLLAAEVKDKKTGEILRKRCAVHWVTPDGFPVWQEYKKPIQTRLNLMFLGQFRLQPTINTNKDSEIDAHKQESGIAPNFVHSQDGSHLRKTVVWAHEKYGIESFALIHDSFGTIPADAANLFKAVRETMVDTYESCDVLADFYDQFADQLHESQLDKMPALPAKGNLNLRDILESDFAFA

B1: mutant T7 promoter SEQ ID NO: 10 (dsDNA)
DNA 1: TAATACGACTCGCTATCG
DNA 2: CGATAGCGAGTCGTATTA
binding result: binds
